Values quoted from earlier work, collected in publication PMC11267001.

Target: DOCK5ΔC/ELMO1 DOCK5 1-1642 (Homo sapiens) (UniProt Q9H7D0)

Kd: 10 µM
Substance: RhoG (from UniProt P84095)
